Measurements taken from the supplement of paper PMC10567573.

B1: DVL3 (parent)
chain: FPELGYSYGGGSASSQHSEGSRSS
B2: PRKX (parent)
chain: KLLVVDRTRRLGNMKNGANDVKHH

Variants of: B1
Assay: protein stability index of a GFP-peptide fusion (GPS, HEK-293T) (PSI 1-6); higher = more stable
Conditions: c terminus: a fixed tail appended
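Further: lentivirally expressed fusions sorted by FACS into six bins by GFP to DsRed ratio, PSI derived from sequencing read proportions per bin multiplied by bin number.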

Protein stability index: each site, then its substitutions
G9: C 2.3; K 3.18; P 3.37; F 2.43; T 3.32; Y 2.11; I 2.22; N 3.77; V 2.4; L 1.6; E 4.39; S 3.27; R 2.91; H 2.93; A 2.39; D 4.05; W 1.58; M 2.49; Q 2.8
S12: P 2.92; G 3.14; Q 3.12; L 2.81; K 2.82; T 3.29; F 2.65; A 2.58; W 2.22; D 3.2; V 3; H 2.9; I 2.64; Y 2.41; M 2.9; N 3.17; C 3.03; R 2.91; E 3.56
G11: S 3.03; F 2.28; T 2.52; E 3.22; Q 3.16; R 3.5; I 2.22; H 3.29; P 2.9; W 2.11; K 2.7; N 2.98; M 2.73; C 2.7; Y 2.38; L 2.57; V 2.81; A 3.29; D 3.35
A13: Y 2.49; I 2.45; W 1.91; T 3.31; Q 2.8; P 2.94; V 3.12; K 2.63; M 2.98; C 2.22; H 2.73; L 3.18; D 2.77; N 3.03; R 3.12; G 3.04; F 2.31; E 3.47; S 2.9
G5: E 4.81; K 3.98; C 3.52; P 2.58; M 3.31; V 3.64; Y 2.5; Q 4.39; R 3.58; H 3.08; F 2.33; S 3.52; I 2.93; A 2.91; D 4.59; L 3.18; N 3.96; W 1.61; T 3.96
Y8: D 4.75; T 3.7; S 4.09; P 3.97; Q 4.06; C 2.74; K 2.95; W 2.82; L 3.09; H 3.43; I 2.58; M 3.6; V 3.45; E 4.71; N 4.09; A 3.72; R 3.2; F 2.59; G 3.8
S7: H 2.4; I 2.04; E 3.68; V 2.42; W 1.74; G 2.5; Q 3.22; R 2.18; T 2.36; N 3.55; L 2.26; P 2.7; A 2.12; M 2.65; F 2.72; C 1.84; Y 2.19; K 3.21; D 4.89
Q16: G 2.88; W 2.27; H 3.12; D 3.58; C 2.81; E 3.22; R 2.41; K 2.95; L 2.83; N 3.28; Y 2.69; A 2.86; V 2.7; M 3.07; F 2.03; I 3.05; T 3.48; P 3.31; S 3.09
G10: T 2.78; M 2.15; W 1.89; K 3.61; I 2.81; R 2.74; D 3.67; V 2.83; L 2.62; Y 2.45; H 3.12; S 3.45; C 2.2; N 3.55; F 2.22; E 3.95; A 3.06; Q 2.84; P 3.3
E3: M 3.5; P 2.96; L 3.87; D 2.67; T 2.19; Q 3.16; N 2.63; A 3.43; I 3.59; Y 2.61; H 2.58; F 2.93; C 2.76; R 3.41; V 3.75; G 2.12; W 2.99; S 1.59; K 2.62
H17: F 2.77; G 3.07; E 3.29; C 3.1; A 3.12; D 3.08
S14: W 2.47; Y 2.37; R 3.25; C 2.71; F 2.16; P 3.24; A 3.45; N 2.87; Q 2.99; D 3.61; V 2.96; T 2.77; H 3.17; I 2.9; G 3.44; L 2.73; E 3.41; K 3.51; M 2.59
S15: R 2.92; Y 2.73; D 2.99; I 2.9; V 3.2; Q 3.18; G 2.8; F 2.71; H 3.2; L 3.16; N 3.38; K 2.64; M 2.74; T 2.65; C 2.19; W 1.75; A 3.59; P 3.56; E 3.65
P2: H 2.1; E 4.66; C 1.99; S 3.34; T 2.38; F 3.37; A 2.87; M 3.96; R 4.09; G 3.12; W 3.2; Y 3.1; N 4.26; D 5.09; V 4.01; K 4.49; Q 3.02; L 2.86; I 2.07
Y6: W 1.66; M 3.71; S 3.98; T 3.7; A 3.87; Q 4.3; H 3.77; K 3.37; C 3.4; V 3.75; L 3.53; G 3.81; I 3.77; E 4.76; N 4.58; P 3.76; D 5.2; R 3.5; F 2.32
F1: K 4.89; T 4.95; G 4.62; H 4.96; L 4.22; D 5.2; P 5.34; S 4.99; M 4.38; I 5.21; C 4.68; Q 5.03; E 5.18; Y 4; V 4.03; W 4.25; A 5.09; R 4.86; N 5.32
L4: M 2.09; H 3.33; K 2.98; C 2.82; N 2.35; V 3.36; T 3.77; A 3.47; G 1.8; E 4.31; I 3.25; D 4.52; W 1.76; Y 2.57; R 2.84; S 2.62; F 3.16; Q 3.35; P 3.24

Variants of: B2
Assay: as above
Conditions: c terminus: a fixed tail appended

Protein stability index of substitutions, site by site:
V5: E 4.08
R9: P 3.45
R10: W 2.8
N13: C 2.62
H24: I 2.23; S 3.48; D 3.4
D6: G 2.29; S 2.81
K15: T 2.78
N16: R 2.74
V4: D 3.77
G17: R 2.55
H23: V 2.96
D20: S 2.38
A18: C 3.55; F 2.53
L11: F 2.93; R 3.65
M14: L 2.89; G 3.74
N19: Q 2.89; W 2.71
V21: Y 2.34
